# From US8431396B2, “Anti-angiogenic peptides” (The Cleveland Clinic Foundation, priority 2003, dated 2013)
# B1: mutant TIMP3: Sorsby fundus dystrophy-related S156C mutant TIMP3 expressed in PAEKDR endothelial cells (protein)
# chain: CTCSPSHPQDAFCNSDIVIRAKVVGKKLVKEGPFGTLVYTIKQMKMYRGFTKMPHVQYIHTEASESLCGLKLEVNKYQYLLTGRVYDGKMYTGLCNFVERWDQLTLSQRKGLNYRYHLGCNCKIKSCYYLPCFVTSKNECLWTDMLSNFGYPGYQCKHYACIRQKGGYCSWYRGWAPPDKSIINATDP
# Columns and labels:
# PAEKDR cells [1] = assay: VEGF-stimulated migration (modified Boyden chamber) of transfected PAEKDR cells; format: cell-based, porcine; settings: VEGF 50 ng/ml
# Experimental: A modified Boyden chamber assay was carried out as described previously 34. Briefly, 8.0 μm pore PVPF polycarbonate membranes were pre-coated with 100 μg/ml collagen type I in 0.2 N acetic acid (Cohesion technologies, INC. Pala Alto, Calif.). […] Chamber was then incubated for 4 hrs at 37° C. in a 5% CO2 humidified incubator. Cells remaining on the top of the filter were removed. Cells on the bottom surface of the filter were fixed, stained and mounted. The number of migrating cells per well was counted microscopically.
# soluble VEGFR-2 = assay: Soluble VEGFR-2 (sKDR) in conditioned medium (ELISA); format: cell-based, human; settings: mutant cells; data not shown
# VEGFR-2 (KDR) = biological target: T1, VEGFR-2 (KDR) (Homo sapiens, UniProt P35968); assay: [125I]VEGF binding in transfected PAEKDR cell lines; settings: PAEKDR cells expressing mutant TIMP3 vs vector
# T1 construct: To determine whether these receptor isoforms represent full-length VEGFR-2; expressed in transfected cells; host or cells: porcine aortic endothelial (PAE) cells
# T1 sequence (P35968 20-1356): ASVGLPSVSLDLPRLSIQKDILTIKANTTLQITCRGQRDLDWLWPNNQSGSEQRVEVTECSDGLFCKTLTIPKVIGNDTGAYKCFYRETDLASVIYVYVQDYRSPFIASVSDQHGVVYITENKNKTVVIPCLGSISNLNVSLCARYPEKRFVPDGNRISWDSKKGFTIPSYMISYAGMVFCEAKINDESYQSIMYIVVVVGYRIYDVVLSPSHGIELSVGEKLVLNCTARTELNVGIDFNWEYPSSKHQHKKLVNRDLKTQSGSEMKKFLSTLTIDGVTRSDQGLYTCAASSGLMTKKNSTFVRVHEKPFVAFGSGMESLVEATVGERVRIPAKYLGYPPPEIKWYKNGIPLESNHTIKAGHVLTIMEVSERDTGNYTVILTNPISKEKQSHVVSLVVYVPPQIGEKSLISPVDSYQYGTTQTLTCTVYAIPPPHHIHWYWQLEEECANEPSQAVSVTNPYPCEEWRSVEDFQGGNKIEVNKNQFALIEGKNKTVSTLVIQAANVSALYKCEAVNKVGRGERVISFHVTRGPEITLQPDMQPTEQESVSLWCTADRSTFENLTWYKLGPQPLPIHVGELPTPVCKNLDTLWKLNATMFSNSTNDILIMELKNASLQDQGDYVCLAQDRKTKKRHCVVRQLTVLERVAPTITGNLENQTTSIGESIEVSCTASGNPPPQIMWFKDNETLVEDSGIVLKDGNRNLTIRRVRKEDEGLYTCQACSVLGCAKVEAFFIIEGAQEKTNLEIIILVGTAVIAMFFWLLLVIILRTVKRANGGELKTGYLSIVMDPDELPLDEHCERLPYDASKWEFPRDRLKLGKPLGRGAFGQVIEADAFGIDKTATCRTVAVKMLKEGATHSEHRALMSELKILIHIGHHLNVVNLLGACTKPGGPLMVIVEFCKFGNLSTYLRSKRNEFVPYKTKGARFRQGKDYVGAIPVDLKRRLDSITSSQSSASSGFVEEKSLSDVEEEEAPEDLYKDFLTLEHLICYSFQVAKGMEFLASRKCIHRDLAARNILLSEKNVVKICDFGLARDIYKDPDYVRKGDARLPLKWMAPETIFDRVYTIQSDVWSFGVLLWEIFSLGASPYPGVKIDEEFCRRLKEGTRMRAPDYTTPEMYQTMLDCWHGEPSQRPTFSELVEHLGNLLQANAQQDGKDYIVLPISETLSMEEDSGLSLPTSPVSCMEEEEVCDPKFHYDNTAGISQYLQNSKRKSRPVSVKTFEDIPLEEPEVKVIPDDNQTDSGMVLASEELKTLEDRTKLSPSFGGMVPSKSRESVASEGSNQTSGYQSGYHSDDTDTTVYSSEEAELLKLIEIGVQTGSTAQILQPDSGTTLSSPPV
# Experimental: PAEKDR cells were transfected with TIMP3 cDNA or empty vector using Lipofectamine reagent (Gibco-BRL Rockville, Md.). Stable clones were isolated using Hygromycin selection.
# After washing, the cell monolayers were solubilized with lysis buffer (20 mM Tris HCl pH 7.5, 1% triton X 100 and 10% glycerol), and the radioactivity measured in a gamma counter.
# KDR = biological target: T2, KDR (Homo sapiens, UniProt P35968); assay: VEGF-stimulated KDR tyrosine phosphorylation in membrane fractions (Western blot); format: cell-based; settings: mutant cells; data not shown
# T2 construct: To determine whether these receptor isoforms represent full-length VEGFR-2; expressed in transfected cells; host or cells: porcine aortic endothelial (PAE) cells
# T2 sequence (P35968 20-1356): as above
# Experimental: 2 day serum free conditioned medium (CM) was collected from subconfluent cells cultured on six-well plates (Costar). In some cases the CM was further concentrated with heparin-agarose gels (Bio-rad). The cell monolayer was dislodged from the culture plates following a 10 min incubation in Ca2+, Mg2+ free phosphate buffered saline (PBS) containing 2.5 mM EDTA. After several rinses in PBS and water, the ECM was scraped in a small volume of electrophoresis sample buffer without reducing agent for analyses. Plasma membrane (PM) fractions were prepared from cells centrifuged at 500 g and 4° C. for 5 min The supernatant was discarded and the cell pellets were resuspended in PBS containing protease inhibitors, lysed with a 26-gauge syringe needle, and centrifuged at 3,000 g at 4° C. for 15 minutes. The supernatant was centrifuged at […] at 4° C. for 1 hr. The PM pellets were suspended in lysis buffer containing protease inhibitors. In some instances the membrane fraction of cells was prepared using ProteoExtract Subcellular Proteome Extaction Kit (EMD Biosciences, Inc).
# Cell fractions or immunoprecipitates of the lysates with the indicated antibodies were subjected to SDS-PAGE. Proteins were detected with either a HRP-conjugated anti-rabbit or anti mouse IgG antibody (Amersham Pharmacia Biotech., Piscataway, N.J.) followed by ECL. […]
# MMPs = assay: Reverse zymography of ECM and CM of transfected PAEKDR cells; format: biochemical; settings: PAEKDR cells expressing WT or mutant TIMP3
# Experimental: Conditioned medium, cell lysates and ECM fractions from transfected cells were prepared as described previously (Qi et al., 2002). Equal amounts of protein were loaded onto a 12% gel with 1 mg/ml gelatin plus RPE cell-conditioned media, as a source of MMPs, for reverse zymography and processed as described previously (Pavloff et al., 1992).
# PAEKDR cells [2] = assay: Tube formation assay in type 1 collagen gels; format: cell-based, porcine; settings: 50 ng/ml VEGF; three-dimensional collagen gels
# Experimental: Type 1 collagen was mixed with 10×DMEM and 0.1 M NaOH (8:1:1), adjusted to a solution containing 10 μg/ml growth factor reduced matrigel matrix (BD, Biosciences), and then distributed in 48-well dishes. […] After 4 h of incubation at 37° C., a second layer of collagen was added, and cultures were kept under the same conditions as above described. Tube formation was examined using a phase-contrast microscopy at the indicated time points.
# [3] = tested on: ERK1 (p44) and ERK2 (p42); assay: VEGF-stimulated ERK1/2 phosphorylation in transfected PAEKDR cells (Western blot); format: cell-based; settings: mutant cells; data not shown
# Experimental: Cell fractions or immunoprecipitates of the lysates with the indicated antibodies were subjected to SDS-PAGE. Proteins were detected with either a HRP-conjugated anti-rabbit or anti mouse IgG antibody (Amersham Pharmacia Biotech., Piscataway, N.J.) followed by ECL. The blots were restripped with Western ReProbe™ solution (Genotech) for 30 minutes and reprobed as indicated.
# Activation of MAP kinase is a known activated VEGFR-2 downstream signaling event. We measured the phosphorylation of two MAP kinases, ERK1 (p44) and ERK2 (p42) by western blot analysis of membrane fractions in WT and mutant ECs.
# PAEKDR cells [4] = assay: VEGF-stimulated actin reorganization / membrane ruffles; format: cell-based, porcine; settings: 50 ng/ml VEGF for 15 min
# Experimental: (§1) For immunostaining, subconfluent cells cultured on Falcon cultureslides (BD, Biosciences) were used. For surface KDR detection, cells were fixed in 1% paraformaldehyde for 10 min at 4° C. Following blocking with 1% BSA cells were incubated with anti-extracellular VEGFR-2 monoclonal antibody for 1 h at room temperature. Surface KDR was detected with biotinylated anti-mouse […] (1:1000) and Texas Red avidin D (1:1500) using standard procedures. […] The cells were fixed with 3.7% paraformaldehyde in PBS for 30 min at 4° C. and permeabilized with 0.2 Triton X-100 for 20 min at room temperature. Following rinsing with PBS the cells were incubated with fluorescein isothiocyanate (FITC)-labeled phalloidin in PBS (0.66 μg/ml, Sigma) for 20 min at room temperature washed with PBS and analyzed by fluorescence microscopy.
# surface KDR = assay: Surface KDR immunofluorescence staining; format: cell-based; settings: clone KDR-2 antibody; data not shown
# Experimental: as §1
molecule,measurement,setting,value
B1,VEGF-stimulated migration of cells expressing TIMP3 variant,PAEKDR cells [1],accentuated migratory response towards VEGF
same,"cleaved sVEGFR-2 in the CM, more than mock cells",soluble VEGFR-2,7- to 8 fold
same,increase in [125I] VEGF binding,VEGFR-2 (KDR),2-3 fold
same,level of phosphorylated KDR after VEGF stimulation vs mock cells,KDR,~2 fold
same,MMP inhibitory activity in ECM and CM (reverse zymography),MMPs,minimal MMP inhibitory activity
same,VEGF-stimulated tube formation,PAEKDR cells [2],"forming extensive tubular networks, but by day 5 the tubular structures started to regress and collapse"
same,increase of VEGF-stimulated ERK1/2 phosphorylation,[3],2-3 fold
same,VEGF-stimulated formation of membrane ruffles,PAEKDR cells [4],a majority of mutant cells showed more striking edge ruffles
same,surface KDR labeling relative to empty vector or WT-TIMP3 cells,surface KDR,increased fluorescent labeling for surface KDR
